T1: rhC5a, P01031
T1 chain: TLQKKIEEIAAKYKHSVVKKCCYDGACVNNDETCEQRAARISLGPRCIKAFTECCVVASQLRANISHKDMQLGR


Legend:
[1] = biological target: rhC5a (human (printed as rhC5a)) (UniProt P01031); test: cell-based or functional assay
rhC5a, P01031 = biological target: T1, rhC5a, P01031

| Molecule | Activity (U/mg*10^-3), PMN adherence assay (rhC5a, P01031) [U/mg·10^-3] | further results |
| --- | --- | --- |
| SCPA49, streptococcal C5a peptidase of group A Streptococcus serotype M49 strain CS101, as made by the bacteria (from UniProt P58099 2-1181) (enzyme) | – | Percent inhibition of C5a induced PMN adherence [1]: 54.5% |
| SCPA6, streptococcal C5a peptidase of group A Streptococcus serotype M6 strain UAB200, as made by the bacteria (enzyme) | – | Percent inhibition of C5a induced PMN adherence [1]: 58.8% |
| recombinant wild-type SCPA49 (Asn32 through His1139) (protein) NTVTEDTPATEQAVETPQPTTVSEEVPSSKETKTPQTPDDAEETVADDANDLAPQAPAKTPDTSATSKATIRDLNDPSQVKTLQEKAGKGAGTVVAVIDAGFDKNHEAWRLTDKAKARYQSKEDLEKAKKEHGITYGEWVNDKVAYYHDYSKDGKTAVDQEHGTHVSGILSGNAPSETKEPYRLEGAMPEAQLLLMRVEIVNGLADYARNYAQAIRDAVNLGAKVINMSFGNAALAYANLPDETKKPFVYAKSKGVRIVTTAGNDSSFGGKTRLPLADHPDYGVVGTPAAADSTLTVASYSPDNQLTETAMVKTDDQQDKEMPVLSTNRFEPNKAYDYAYANRGMKEDDFKDVKGKIALIERSDIDFTDKIANAKKAGAVGVLIYDNQDKGFPIELPNVDQMPAAFISRKDGLLLKDNSQKTITFNATPKVLPTASGTKLSRFSSWGLTADGNIKPDIAAPGQDILSSAANNKYAKLSGTSMSAPLVAVIMGLLQKQYETQYPDMTQSERLDLAKKVLMSSATALYDEDEKAYFSPRQQGAGAVDAKKASEATMYVTDKDNTSSKVHLNNVSDKFEVTVTVHNKSDKPHELYYQATVQTDKVDGKHFALAPKALIETSWQKITIPANSSKQVTIPIDISQFSKDLLAQMKNGYFLEGFVRIKQDPTKEELMSIPYIGFRGDFGNLSALEKPLYDSKDGSSYYHEEISDAKDQLDGDGLQFYALKNDFTALTTESNPWTIINVVKEGVENIEDIESSEITETIFAGTFAKQDDDRHYYIHRHANGKPYAAISPNGDGNRDYVQFHGTFLRNAKNLVAEVLDKEGNVVWTSEVTEQVVKNYNNDLASTLGSTRFEISRWDGKDKDAKVVANGTYTYRVRYTPISSGAKEQHTDFDVIVDNTTPEVATSATFSTEDRRLTLASKPQTSQPVYRERIAYTYMDEDLPTTEYISPNEDGTFTLPEEAETMEGATVPLKMSDFTYVVEDMAGNITYTPVTKLLEGHSNKPEQDGSDQAPDKKPETKPEQDGSDQAPDKKPETKPGQDGSGQTPDKKPETKPEKDSSGQTPGKTPQKGQPSRTLEKRSSKRALATKASTRDQLPTTNDKDTNRLH | 170 | – |
| SCPA49D130A (protein) NTVTEDTPATEQAVETPQPTTVSEEVPSSKETKTPQTPDDAEETVADDANDLAPQAPAKTPDTSATSKATIRDLNDPSQVKTLQEKAGKGAGTVVAVIAAGFDKNHEAWRLTDKAKARYQSKEDLEKAKKEHGITYGEWVNDKVAYYHDYSKDGKTAVDQEHGTHVSGILSGNAPSETKEPYRLEGAMPEAQLLLMRVEIVNGLADYARNYAQAIRDAVNLGAKVINMSFGNAALAYANLPDETKKPFVYAKSKGVRIVTTAGNDSSFGGKTRLPLADHPDYGVVGTPAAADSTLTVASYSPDNQLTETAMVKTDDQQDKEMPVLSTNRFEPNKAYDYAYANRGMKEDDFKDVKGKIALIERSDIDFTDKIANAKKAGAVGVLIYDNQDKGFPIELPNVDQMPAAFISRKDGLLLKDNSQKTITFNATPKVLPTASGTKLSRFSSWGLTADGNIKPDIAAPGQDILSSAANNKYAKLSGTSMSAPLVAVIMGLLQKQYETQYPDMTQSERLDLAKKVLMSSATALYDEDEKAYFSPRQQGAGAVDAKKASEATMYVTDKDNTSSKVHLNNVSDKFEVTVTVHNKSDKPHELYYQATVQTDKVDGKHFALAPKALIETSWQKITIPANSSKQVTIPIDISQFSKDLLAQMKNGYFLEGFVRIKQDPTKEELMSIPYIGFRGDFGNLSALEKPLYDSKDGSSYYHEEISDAKDQLDGDGLQFYALKNDFTALTTESNPWTIINVVKEGVENIEDIESSEITETIFAGTFAKQDDDRHYYIHRHANGKPYAAISPNGDGNRDYVQFHGTFLRNAKNLVAEVLDKEGNVVWTSEVTEQVVKNYNNDLASTLGSTRFEISRWDGKDKDAKVVANGTYTYRVRYTPISSGAKEQHTDFDVIVDNTTPEVATSATFSTEDRRLTLASKPQTSQPVYRERIAYTYMDEDLPTTEYISPNEDGTFTLPEEAETMEGATVPLKMSDFTYVVEDMAGNITYTPVTKLLEGHSNKPEQDGSDQAPDKKPETKPEQDGSDQAPDKKPETKPGQDGSGQTPDKKPETKPEKDSSGQTPGKTPQKGQPSRTLEKRSSKRALATKASTRDQLPTTNDKDTNRLH | < 20 | – |
| SCPA49S512A (protein) NTVTEDTPATEQAVETPQPTTVSEEVPSSKETKTPQTPDDAEETVADDANDLAPQAPAKTPDTSATSKATIRDLNDPSQVKTLQEKAGKGAGTVVAVIDAGFDKNHEAWRLTDKAKARYQSKEDLEKAKKEHGITYGEWVNDKVAYYHDYSKDGKTAVDQEHGTHVSGILSGNAPSETKEPYRLEGAMPEAQLLLMRVEIVNGLADYARNYAQAIRDAVNLGAKVINMSFGNAALAYANLPDETKKPFVYAKSKGVRIVTTAGNDSSFGGKTRLPLADHPDYGVVGTPAAADSTLTVASYSPDNQLTETAMVKTDDQQDKEMPVLSTNRFEPNKAYDYAYANRGMKEDDFKDVKGKIALIERSDIDFTDKIANAKKAGAVGVLIYDNQDKGFPIELPNVDQMPAAFISRKDGLLLKDNSQKTITFNATPKVLPTASGTKLSRFSSWGLTADGNIKPDIAAPGQDILSSAANNKYAKLSGTAMSAPLVAVIMGLLQKQYETQYPDMTQSERLDLAKKVLMSSATALYDEDEKAYFSPRQQGAGAVDAKKASEATMYVTDKDNTSSKVHLNNVSDKFEVTVTVHNKSDKPHELYYQATVQTDKVDGKHFALAPKALIETSWQKITIPANSSKQVTIPIDISQFSKDLLAQMKNGYFLEGFVRIKQDPTKEELMSIPYIGFRGDFGNLSALEKPLYDSKDGSSYYHEEISDAKDQLDGDGLQFYALKNDFTALTTESNPWTIINVVKEGVENIEDIESSEITETIFAGTFAKQDDDRHYYIHRHANGKPYAAISPNGDGNRDYVQFHGTFLRNAKNLVAEVLDKEGNVVWTSEVTEQVVKNYNNDLASTLGSTRFEISRWDGKDKDAKVVANGTYTYRVRYTPISSGAKEQHTDFDVIVDNTTPEVATSATFSTEDRRLTLASKPQTSQPVYRERIAYTYMDEDLPTTEYISPNEDGTFTLPEEAETMEGATVPLKMSDFTYVVEDMAGNITYTPVTKLLEGHSNKPEQDGSDQAPDKKPETKPEQDGSDQAPDKKPETKPGQDGSGQTPDKKPETKPEKDSSGQTPGKTPQKGQPSRTLEKRSSKRALATKASTRDQLPTTNDKDTNRLH | < 20 | – |
| SCPA49N295A (protein) NTVTEDTPATEQAVETPQPTTVSEEVPSSKETKTPQTPDDAEETVADDANDLAPQAPAKTPDTSATSKATIRDLNDPSQVKTLQEKAGKGAGTVVAVIDAGFDKNHEAWRLTDKAKARYQSKEDLEKAKKEHGITYGEWVNDKVAYYHDYSKDGKTAVDQEHGTHVSGILSGNAPSETKEPYRLEGAMPEAQLLLMRVEIVNGLADYARNYAQAIRDAVNLGAKVINMSFGNAALAYANLPDETKKPFVYAKSKGVRIVTTAGADSSFGGKTRLPLADHPDYGVVGTPAAADSTLTVASYSPDNQLTETAMVKTDDQQDKEMPVLSTNRFEPNKAYDYAYANRGMKEDDFKDVKGKIALIERSDIDFTDKIANAKKAGAVGVLIYDNQDKGFPIELPNVDQMPAAFISRKDGLLLKDNSQKTITFNATPKVLPTASGTKLSRFSSWGLTADGNIKPDIAAPGQDILSSAANNKYAKLSGTSMSAPLVAVIMGLLQKQYETQYPDMTQSERLDLAKKVLMSSATALYDEDEKAYFSPRQQGAGAVDAKKASEATMYVTDKDNTSSKVHLNNVSDKFEVTVTVHNKSDKPHELYYQATVQTDKVDGKHFALAPKALIETSWQKITIPANSSKQVTIPIDISQFSKDLLAQMKNGYFLEGFVRIKQDPTKEELMSIPYIGFRGDFGNLSALEKPLYDSKDGSSYYHEEISDAKDQLDGDGLQFYALKNDFTALTTESNPWTIINVVKEGVENIEDIESSEITETIFAGTFAKQDDDRHYYIHRHANGKPYAAISPNGDGNRDYVQFHGTFLRNAKNLVAEVLDKEGNVVWTSEVTEQVVKNYNNDLASTLGSTRFEISRWDGKDKDAKVVANGTYTYRVRYTPISSGAKEQHTDFDVIVDNTTPEVATSATFSTEDRRLTLASKPQTSQPVYRERIAYTYMDEDLPTTEYISPNEDGTFTLPEEAETMEGATVPLKMSDFTYVVEDMAGNITYTPVTKLLEGHSNKPEQDGSDQAPDKKPETKPEQDGSDQAPDKKPETKPGQDGSGQTPDKKPETKPEKDSSGQTPGKTPQKGQPSRTLEKRSSKRALATKASTRDQLPTTNDKDTNRLH | < 20 | – |
| ΔSCPA49 (truncated recombinant SCPA49, Thr63 through His1031) (protein) TKTPQTPDDAEETVADDANDLAPQAPAKTPDTSATSKATIRDLNDPSQVKTLQEKAGKGAGTVVAVIDAGFDKNHEAWRLTDKAKARYQSKEDLEKAKKEHGITYGEWVNDKVAYYHDYSKDGKTAVDQEHGTHVSGILSGNAPSETKEPYRLEGAMPEAQLLLMRVEIVNGLADYARNYAQAIRDAVNLGAKVINMSFGNAALAYANLPDETKKPFVYAKSKGVRIVTTAGNDSSFGGKTRLPLADHPDYGVVGTPAAADSTLTVASYSPDNQLTETAMVKTDDQQDKEMPVLSTNRFEPNKAYDYAYANRGMKEDDFKDVKGKIALIERSDIDFTDKIANAKKAGAVGVLIYDNQDKGFPIELPNVDQMPAAFISRKDGLLLKDNSQKTITFNATPKVLPTASGTKLSRFSSWGLTADGNIKPDIAAPGQDILSSAANNKYAKLSGTSMSAPLVAVIMGLLQKQYETQYPDMTQSERLDLAKKVLMSSATALYDEDEKAYFSPRQQGAGAVDAKKASEATMYVTDKDNTSSKVHLNNVSDKFEVTVTVHNKSDKPHELYYQATVQTDKVDGKHFALAPKALIETSWQKITIPANSSKQVTIPIDISQFSKDLLAQMKNGYFLEGFVRIKQDPTKEELMSIPYIGFRGDFGNLSALEKPLYDSKDGSSYYHEEISDAKDQLDGDGLQFYALKNDFTALTTESNPWTIINVVKEGVENIEDIESSEITETIFAGTFAKQDDDRHYYIHRHANGKPYAAISPNGDGNRDYVQFHGTFLRNAKNLVAEVLDKEGNVVWTSEVTEQVVKNYNNDLASTLGSTRFEISRWDGKDKDAKVVANGTYTYRVRYTPISSGAKEQHTDFDVIVDNTTPEVATSATFSTEDRRLTLASKPQTSQPVYRERIAYTYMDEDLPTTEYISPNEDGTFTLPEEAETMEGATVPLKMSDFTYVVEDMAGNITYTPVTKLLEGH | – | peptidase activity, PMN adherence assay (rhC5a, P01031): lacked peptidase activity |

Source: patent publication US20020142009A1
